{"source": "patent US20170114420", "about": "“[…] WITH BINDING AFFINITY TO NOROVIRUS” (North Carolina State University, published 2017)", "binders": {"B1": {"name": "M6-2 (ssDNA)", "DNA": "AGTATACGTATTACCTGCAGCTGGGAAGAGGTCCGGTAAATGCAGGGTCAGCCCGGAGAGCGATATCTCGGAGATCTTGC"}, "B2": {"name": "M1 (ssDNA)", "DNA": "AGTATACGTATTACCTGCAGCTGTTTATGGGGATAAACGTATCTAATTCGTGTACTAATCACGATATCTCGGAGATCTTGC"}, "B3": {"name": "SMV-21 (ssDNA)", "DNA": "AGTATACGTATTACCTGCAGCCCATGTTTTGTAGGTGTAATAGGTCATGTTAGGGTTTCTGCGATATCTCGGAGATCTTGC"}, "B4": {"name": "SMV-19 (ssDNA)", "DNA": "AGTATACGTATTACCTGCAGCCACCAGTGTGTTGAGGTTTGAGCACACTGATAGAGTGTCACGATATCTCGGAGATCTTGC"}, "B5": {"name": "SMV-25 (ssDNA)", "DNA": "AGTATACGTATTACCTGCAGCCATCTGTGTGAAGACTATATGGCGCTCACATATTTCTTTCCGATATCTCGGAGATCTTGC"}, "B6": {"name": "SMV-26 (ssDNA)", "DNA": "AGTATACGTATTACCTGCAGCTGACCGAGTGTCTGGTCATTTTCGATGTCTGTTGTTAGGCCGATATCTCGGAGATCTTGC"}}, "key": {"[1]": {"target": "T1, Norovirus GII.2 (Snow Mountain virus) VLP, capsid protein VP1 (Snow Mountain virus (Norovirus GII.2), UniProt Q80RD6 Q80RD6:1-542)", "experiment": "ELONA", "details": "chain copies: 180"}, "[2]": {"target": "T1, Norovirus GII.2 (Snow Mountain virus) …", "experiment": "ELONA; ELASA, RT, 3 ug/ml VLP; T/N 18.1 at 1 uM (Table 5)", "details": "chain copies: 180, label: 5' biotin"}, "[3]": {"target": "T1, Norovirus GII.2 (Snow Mountain virus) …", "experiment": "ELONA; ELASA, RT, 3 ug/ml VLP; T/N 12.9 at 1 uM (Table 5)", "details": "chain copies: 180, label: 5' biotin"}, "[4]": {"target": "Norovirus GI.1 (Norwalk) VLP, capsid protein VP1 (Norwalk virus (Norovirus GI.1), UniProt Q83884 Q83884:1-530)", "experiment": "ELONA; 1 uM aptamer, RT; <2 is negative", "details": "label: 5' biotin"}, "[5]": {"target": "T1, Norovirus GII.2 (Snow Mountain virus) …", "experiment": "ELONA; ELASA, RT, 3 ug/ml VLP; T/N 12.4 at 1 uM (Table 5)", "details": "chain copies: 180, label: 5' biotin"}, "[6]": {"target": "T1, Norovirus GII.2 (Snow Mountain virus) …", "experiment": "ELONA; ELASA, RT, 3 ug/ml VLP; T/N 4.1 at 1 uM (Table 5)", "details": "chain copies: 180, label: 5' biotin"}}, "data": [{"binder": "B1", "values": [{"measurement": "binding signal", "setting": "[1]", "value": 12, "unit": "VLP/no VLP ratio"}]}, {"binder": "B2", "values": [{"measurement": "binding signal", "setting": "[1]", "value": 10.7, "unit": "VLP/no VLP ratio"}]}, {"binder": "B3", "values": [{"measurement": "Kd", "setting": "[2]", "value": "~101", "unit": "nM"}]}, {"binder": "B4", "values": [{"measurement": "Kd", "setting": "[3]", "value": "~191", "unit": "nM"}, {"measurement": "binding result", "setting": "[4]", "value": "binds"}]}, {"binder": "B5", "values": [{"measurement": "Kd", "setting": "[5]", "value": "~232", "unit": "nM"}]}, {"binder": "B6", "values": [{"measurement": "Kd", "setting": "[6]", "value": "~281", "unit": "nM"}]}]}
